Laboratory results: the supplement of paper PMC9112550, “Optimization of the antimicrobial peptide Bac7 by deep mutational scanning” (BMC Biology, 2022)

system: Escherichia coli TOP10; assay: shrunken log2 fold change of peptide-encoding DNA abundance (4.5 h post-induction vs induction); higher = less antimicrobial activity (less host growth inhibition); details: time post-induction: 4.5 h; library: site-saturation at positions 5, 18, 19, 20
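Also: peptides expressed intracellularly from a pBAD plasmid library in pooled LB shake-flask culture, induced with 0.3% L-arabinose, DNA abundance read by NGS, three biological replicates, DESeq2 with apeglm shrinkage.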

| Sequence | shrunken log2 fold change |
| --- | --- |
| RRIRHRPPRLPRPRPRPNGDPRP | -0.0512 |
| RRIRHRPPRLPRPRPRPNIFPRP | -0.0903 |
| RRIRHRPPRLPRPRPRPNIQPRP | -0.141 |
| RRIRHRPPRLPRPRPRPNKDPRP | -0.507 |
| RRIRHRPPRLPRPRPRPNKSPRP | -0.252 |
| RRIRHRPPRLPRPRPRPNLPPRP | -0.57 |
| RRIRHRPPRLPRPRPRPNMLPRP | -0.387 |
| RRIRHRPPRLPRPRPRPNMQPRP | -0.0674 |
| RRIRHRPPRLPRPRPRPNMYPRP | -0.963 |
| RRIRHRPPRLPRPRPRPNNDPRP | -0.727 |
| RRIRHRPPRLPRPRPRPNNTPRP | -0.931 |
| RRIRHRPPRLPRPRPRPNPDPRP | -0.0353 |
| RRIRHRPPRLPRPRPRPNPMPRP | -0.00731 |
| RRIRHRPPRLPRPRPRPNRYPRP | -0.398 |
| RRIRHRPPRLPRPRPRPNSCPRP | -0.089 |
| RRIRHRPPRLPRPRPRPNSTPRP | -1.48 |
| RRIRHRPPRLPRPRPRPNTMPRP | -0.905 |
| RRIRHRPPRLPRPRPRPNTRPRP | -0.28 |
| RRIRHRPPRLPRPRPRPNWEPRP | -0.0833 |
| RRIRHRPPRLPRPRPRPNWMPRP | 0.00348 |
| RRIRHRPPRLPRPRPRPNWTPRP | -0.0102 |
| RRIRHRPPRLPRPRPRPPAKPRP | 0.539 |
| RRIRHRPPRLPRPRPRPPCVPRP | -0.108 |
| RRIRHRPPRLPRPRPRPPDFPRP | 0.0633 |
| RRIRHRPPRLPRPRPRPPEEPRP | 0.791 |

| Sequence | shrunken log2 fold change |
| --- | --- |
| RRIRHRPPRLPRPRPRPPEIPRP | 0.0979 |
| RRIRHRPPRLPRPRPRPPESPRP | 0.211 |
| RRIRHRPPRLPRPRPRPPFEPRP | 0.161 |
| RRIRHRPPRLPRPRPRPPFFPRP | 0.168 |
| RRIRHRPPRLPRPRPRPPFGPRP | -0.0898 |
| RRIRHRPPRLPRPRPRPPFKPRP | 0.332 |
| RRIRHRPPRLPRPRPRPPGGPRP | 0.443 |
| RRIRHRPPRLPRPRPRPPHWPRP | 0.375 |
| RRIRHRPPRLPRPRPRPPIDPRP | 0.065 |
| RRIRHRPPRLPRPRPRPPIMPRP | -0.285 |
| RRIRHRPPRLPRPRPRPPKCPRP | 0.145 |
| RRIRHRPPRLPRPRPRPPKLPRP | 0.12 |
| RRIRHRPPRLPRPRPRPPKPPRP | 0.116 |
| RRIRHRPPRLPRPRPRPPLVPRP | 0.0953 |
| RRIRHRPPRLPRPRPRPPMFPRP | -0.214 |
| RRIRHRPPRLPRPRPRPPMLPRP | 0.0935 |
| RRIRHRPPRLPRPRPRPPMQPRP | 0.268 |
| RRIRHRPPRLPRPRPRPPNTPRP | -0.0573 |
| RRIRHRPPRLPRPRPRPPPCPRP | 0.603 |
| RRIRHRPPRLPRPRPRPPRTPRP | 1.03 |
| RRIRHRPPRLPRPRPRPPVQPRP | -0.0798 |
| RRIRHRPPRLPRPRPRPPWGPRP | 0.347 |
| RRIRHRPPRLPRPRPRPPYHPRP | -0.495 |
| RRIRHRPPRLPRPRPRPPYKPRP | -0.31 |
| RRIRHRPPRLPRPRPRPPYNPRP | -0.642 |

| Sequence | shrunken log2 fold change |
| --- | --- |
| RRIRHRPPRLPRPRPRPPYQPRP | -0.028 |
| RRIRHRPPRLPRPRPRPPYWPRP | 1.65 |
| RRIRHRPPRLPRPRPRPQAQPRP | -0.208 |
| RRIRHRPPRLPRPRPRPQCPPRP | -0.211 |
| RRIRHRPPRLPRPRPRPQCSPRP | -0.0894 |
| RRIRHRPPRLPRPRPRPQDNPRP | -0.144 |
| RRIRHRPPRLPRPRPRPQDPPRP | 0.0646 |
| RRIRHRPPRLPRPRPRPQGHPRP | -0.268 |
| RRIRHRPPRLPRPRPRPQGLPRP | -0.247 |
| RRIRHRPPRLPRPRPRPQHAPRP | 0.0729 |
| RRIRHRPPRLPRPRPRPQKLPRP | -0.52 |
| RRIRHRPPRLPRPRPRPQLFPRP | -0.172 |
| RRIRHRPPRLPRPRPRPQLNPRP | -0.593 |
| RRIRHRPPRLPRPRPRPQLQPRP | 0.0457 |
| RRIRHRPPRLPRPRPRPQMPPRP | -0.232 |
| RRIRHRPPRLPRPRPRPQMQPRP | -0.0236 |
| RRIRHRPPRLPRPRPRPQNDPRP | 0.0173 |
| RRIRHRPPRLPRPRPRPQNEPRP | -0.133 |
| RRIRHRPPRLPRPRPRPQNGPRP | -0.535 |
| RRIRHRPPRLPRPRPRPQNLPRP | -0.00783 |
| RRIRHRPPRLPRPRPRPQNQPRP | -0.563 |
| RRIRHRPPRLPRPRPRPQNVPRP | -0.0702 |
| RRIRHRPPRLPRPRPRPQPSPRP | 0.111 |
| RRIRHRPPRLPRPRPRPQRAPRP | 0.205 |
| RRIRHRPPRLPRPRPRPQRCPRP | -0.00202 |
